Reference: the nanobody polyreactivity screen of Harvey et al. (2022)

Test: yeast display, Sf9 membrane polyspecificity reagent, FACS + sequencing; frameworks hold sequencing errors
Outline: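 Nanobodies from a synthetic yeast display library (Saccharomyces cerevisiae BJ5465), induced 36–48 hours with galactose, were stained 1 hour at 4 °C with 10% biotinylated, detergent-solubilized Sf9 membrane reagent, enriched on streptavidin microbeads, then FACS-sorted. Anti-HA (expression) and streptavidin (reagent binding) fluorescence set low and high (top ~1%) gates. Polyreactivity labels come from the gate of origin. Genes were colony-PCR amplified, MiSeq 2 × 250 sequenced and filtered by CDR length.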

QDQLVESCGGLVQAGGSHRLTCAASGGTSWIYAMGWYRQAPRKARELVAVITWSGGSTYYADSVKGRFTISRDTAKNTVYLQMNSLKPEDTAVYYCATDYTGKWKDHYYYWGQGTQVTVSS
polyreactivity (PSR sort gate): low polyreactivity

QVQLVESGGGIVQAGGSLRLSCAASGFTFDIYAMGWYRQAPGTERELVATISFTGDTTSYADSVKGRFTISRDNAKNTVYLQMNSLKPEDTAVYYCAADGSYPLSVGRENLHYAEFDYWGQGTQVTVSS
polyreactivity (PSR sort gate): low polyreactivity

QVQLVESGGGLVQAGGSLRLSCAASGRIFRLYALGWDRQAPGKERELVATITSGGTYYADSVKGRFTISRDNAKNTVYLQMNSLKPEDTAVYYCAAHSGSTYKYWGQGTQVTVSS
polyreactivity (PSR sort gate): low polyreactivity

QVQLVESGGGLVQAGGSLRLSCAASGLTFYKNAMGWYRQPPGKERELGAVISSSGGSTYYADSVKGRFTISRDNAKNTVYLQMKSLKPEDTAVYYSARDLYTEYRWGRLTYDYWGQGTQVTVSS
polyreactivity (PSR sort gate): low polyreactivity

QVQLVESAGGLVQAGGSLSLSCAASGGMFTGYAMGWDRQAPGTERELVAAINTGGNTYYADSVKGRFTISRDNAKNTVYLQMNSLKPEDTAVYYCAAVYFPRSNTARRYGYWGQGTQVTVSS
polyreactivity (PSR sort gate): high polyreactivity

QVQLVESGGGLVQAGGSLRLSCAASGLTFSVYAMGWYRQAPGKERELVAAITRNGGSTYYADSVKGRFTISRDNAKNTVYLQMNSLKTEDTAVYYCAADASSKLYDYWGQGTQVSVSS
polyreactivity (PSR sort gate): low polyreactivity

QVQLVESGGGLVQAGGSLRVSCAASGNIFGEYAMGWYRQAPGKERELVAAITNSGGRTHYADSVKGRFTISRDNAKNTVYLQMNSLKPEDTAVYYCAAPTKYRSRRYYWGQGTQVTVSS
polyreactivity (PSR sort gate): high polyreactivity

QVQLVESGGGLVQAGGSLRLSCAASGSTFVGTALGWYRQAPGKVRELVATISNSGGRTYYADSVKGRFTISRDNAKNTVYLQMNSLKPEDTAVYYCAADHPVFGPGYSFDYWGQGTQVTVSS
polyreactivity (PSR sort gate): low polyreactivity

QVQLVDSGGGLVQAGGSLSLSCAASGFTFVRYAMGWYRQAPGKERELVAAISGRGGSTYFADSVKGRFTISRDYAKNTVYLQMNSLKPDDTAVYYCATDYSRTFDYWGQGTQVTVSS
polyreactivity (PSR sort gate): high polyreactivity

QVQLVESGGGLVQAGGSLRLSCPASGRTYASYAMGWYRQAPGKDRELVAAITSSGGSTYYADSVKGRFTISRDNAKNTVYLQMNSLKPEYTAVYYCAARSRYRGDSWGQGTQVTVSS
polyreactivity (PSR sort gate): high polyreactivity

QVQLVESGGGLVQAGGSLRLSCAASGFTFSFYAMGWYRQAPGKERELVATISSGGSTTYAVSVKGRFTISRDNAKNTVYLQMNSLKPEDTAVYYCNARPGQSGARFGYWGQGTQVTVSS
polyreactivity (PSR sort gate): high polyreactivity

QVQLVESGGGLVQAGGSLRLSCAASGFTFVVYAMGWYSQAPGKERELVARITWSGGSTYYADSVKGRFTISRDNAKNTVYLQMNSLKPEDTAVYDCNTRRYPYDGIEHDYWGQGTQVTVSS
polyreactivity (PSR sort gate): low polyreactivity

QVQLVESGGCLVQAGGSLRLSCAASGSIFHPYAMGWYRPAPGKERELVAAISKSGGNTYYADSVKGRFTISRDNAKNTVYLQMNSLKPEHTEVYYCAADYYRGRYSDRYDYWGQGTQVTVSS
polyreactivity (PSR sort gate): low polyreactivity

QVQLVESGGGLVQAGGSLRLSCAASGITFDEYAMGWYRQAPGKERELVASISAGSTYYADSVKGRFTISRDNAKNTVYLQMNSLKPEDTAVYYCAVVVDYDAYRYWGYDYWGQGTQVTVSS
polyreactivity (PSR sort gate): high polyreactivity

QVQLVESGGGLVQAGGSLRLSCAASGITFSSYAMGWSRQAPGKERELVAAIRRRGGTTYYADSVKGPFTISRDNAKNTVYLQMNSLKPEDTAVYYCAARSKSAYWGQGTQVTVSS
polyreactivity (PSR sort gate): high polyreactivity

QVQLVESGGGLVQAGGSLRLSCAASGRLFYYNAMGWYRQAPGKERELVAAISWSGGSTYYADSVKGRFTISRDNAKNTVYLQMNSLKPEDTAVYYCAVDVYGYTPRPTREPLIYEYWGQGTQVTVSS
polyreactivity (PSR sort gate): low polyreactivity

QVQLVESGGGLVQAGGSLRLSCAASGSTFRYYAMGWYRQAPGKERELVAAISRSGGRTYYADSVKGRFTISRDNAKNTAYLQMNRLKPEDTAVYYCAVVVWWFTGCLGPYDYWGKGTQVTVSS
polyreactivity (PSR sort gate): high polyreactivity

QVQLQERGGGLVQAGGSLRLGCEASGNISDDGYMGWYRQAPGKEREFVAAIAAGSNTNYADSVKGRFTISRDNAKNTVYLQMNSLKPVETAVFYCAVASYARVQYLYWGQGTQVTVYS
polyreactivity (PSR sort gate): low polyreactivity

KVQLVESGGGLVQAGGSLGLSCAASGSIFPSNFMGCYRQAPGKERELFAAISNTGSTYYADSVKGRVTISRDNAKNTVYLQMNSLKPEDTAVYYCAAEYWSYAHGGQLYGYDYWGQGSQVTVSS
polyreactivity (PSR sort gate): low polyreactivity

QVQLVESGGGLVQAGGSLRLSCAASGSNIKYYAMGWYRQAPGKERELVARITSDGGSTFYADSVKGRFTISRDNAKNTVYLQMNSLKPEDTAVYYCNTAYAFRHCWFYPMDYWGQGTQVTVSS
polyreactivity (PSR sort gate): high polyreactivity

QVQLVESGGGLVQAGGSLRLSCSASGRTFSWYAMGWYRQAPGKERELVAAISWSGGSTYYADSVKGRFTISRDNAKNTVYLQMNSLKPEDTAVYYCNAVGRPLRGYDYWGQGTQVTVSS
polyreactivity (PSR sort gate): high polyreactivity

QVQLVESGGGLVQAGGRLRLSCAASGRIFVAYVMGWYRQAPGKERELVAAITRGVRTYYADSVKGRFTISRDNAKNTVYLQMNSLKPEDTAVYYCAARGISAFSQDYEYYYWGQGTQVTVSS
polyreactivity (PSR sort gate): high polyreactivity

QVQLVETGGGLVQAGGSLRLSCAASGYTFASNDMVWYRQAPGKERELVAAITKGGGRTYYADSVKGRFTISRDNAKNTVYLQMNRLKPEDTAVYFCAARQLIKYDYCGQGTQVTVSS
polyreactivity (PSR sort gate): low polyreactivity

QVQLVESGGGLVQAGGSLRLSCAASGFIFWRNAMGWYSQAPGQERELVAAITSGDRTNYADSVKGRFTISRDNAKNTVYLQMNSLKPEDTAVYYCNARRYRLVSYDYWGQGTQVTVSS
polyreactivity (PSR sort gate): low polyreactivity

QVQLVESGGGLVQAGGSLRLSCAASGFIFERNTMGWYRQAPGKERELVATISRSAGNTYYADSVKGRFTISRDNANNTVYLQMNSLKPEDSAAYYCAKDHRTRGYDYWGQGTQVSVSS
polyreactivity (PSR sort gate): low polyreactivity

QVQLVESGGGLVQAGGSLRLSCAASGRTFPRYTMGWYRQAPGKERELVAASATGGSTYYADSVKGRFTISRDNAKNTVYLQMNSLKPEDTAVYYCAARPYSNRYVLGVYYWGQGTQVTVSS
polyreactivity (PSR sort gate): high polyreactivity

QVQLVESGGGLVQAGGSLRLSCAASGITFWSNSMGWYRQAPGKERELVATITSSGGDNTNYADSVKGRFTISRDNAKNSVYLQMNSLKPEDTAVYYCNKEGQQSYRWRMDYWGQGTQVTVSS
polyreactivity (PSR sort gate): low polyreactivity

QVQLVESGGGLVQAGGSLRLSCAASGRIFTIYAMGWYRQAPGKERELVATISRRGGSTYYADSVKGRFTISRDNAKNTVYFQMNSLKPEETAVYYCAADSVITWWAYDYWGQGTQVTVSS
polyreactivity (PSR sort gate): high polyreactivity

QVQLVESGGGVVQAGRSLRLSCAASGSPFAYNSMGWYRKAPGKERELVAAISWRGTRTYYADSVKGRFTISRDTAKNTVNLQMNSLKPEDTAVYYCATKYGISYDYWGQGTHVTVSS
polyreactivity (PSR sort gate): high polyreactivity

QVQLVESGGGLVQAGGSLRLSCAASGFIFRLYAMGWYRQAPGKERELVAAISGRGGNTYYADSVKGRFTISRDNAKNTVYLQMNSLKPEDTAVYYCAADRPGTGYSDYDYWGQGTQVTVSS
polyreactivity (PSR sort gate): high polyreactivity

QVQLVESGGGLVQAGGSLRLSCAASGSTFNINAMGWYRQAPGKERELVADITSGGSTNYADSVKGRFTISRDNAKNTVYLQMNSLKPEDTAVYYCNADVLYGDSYRGGYCGQGTQVTVSS
polyreactivity (PSR sort gate): low polyreactivity

QVQLVESGGGLVQAGGSLRLSCAASGRISVYNMGWYRQAPGKERELVAAISNGGSTNYADSVKGRFTISRDNAKNTVYLQMNSLKPEDTAVYYCNRRVPYSFYSRGYYYWGQGTQVTVSS
polyreactivity (PSR sort gate): high polyreactivity

QVQLVESGGGLVQAGGSLRLSCAASGRILGSYAMGWYRQAPGKERELVAAISSGARTNYADSVKGRFTISRDHAKNTVYLQMNCLKPEDTAVYYCAAATYNQDYSYDYWGQGTQVTVSS
polyreactivity (PSR sort gate): low polyreactivity

QVQLVESGGGLVQAGGSLRLSCAASGSTFTAYAMGWYRQAPGKERELVADISDSGGSTYYADSVKGRFTISRDNAKNTVYLQMNSLKPEDTAVYYCAAAWVFKKGFGTEMDYWGQGTQVTVSS
polyreactivity (PSR sort gate): low polyreactivity

QVQLVESGGGLVQAGGSLRLSCAASGSIFYFYAMGWYRQAPGKERELVAAISFSGTRTYYADSVKGRFTISRDNAKNTVYLQRNSLKPEDTAVYYCNAVAYNYPRTYDYWGPGTQVTVSS
polyreactivity (PSR sort gate): high polyreactivity

QVQLVESGGGLVQAGGSLRLSCAASGYTFEYYAMGWYRQAPGKERELVAAISWSGGDTYYADSVKGRFTISRDNAKNTVYLQMNSLKPEDTAVYYCNADLYNYFYYANWYGAYDYWGQGTQVTVSS
polyreactivity (PSR sort gate): low polyreactivity

QVQLVESGGGLVQAGGSLRLICAASGSIRYYAMGWYTQAPGKEREFVAAISRRGSSTNYADSVKGRFTISRDNAKNTVYLQMNSLNPEDTAVYNCAAAARAGLKRYYYWGQGTQVTVSS
polyreactivity (PSR sort gate): high polyreactivity

QVQLVESGGGLVQAGGSLRLSCAASGRTFGTNAMGWYRQAPGKERELVAAISWRGTSTYYADSVKGRFTISRDNAKNTVYLQMNSLKPEDTAVYYCAADFSYTSYATRYQGDYWGQGTQVTVSS
polyreactivity (PSR sort gate): low polyreactivity

QVQLVESGGGLVQAGGSLRLSCAASRRIFSFNAMGWYRQAPGKDRELVAGSTYGGNTYYADSVKGSFTISRDNAKNTVYLQMNSLKPEDTAVYYCAAVRGGRHDYWGQGTQVTVSS
polyreactivity (PSR sort gate): low polyreactivity

QVQLVESGGGLVQAGGSIRLSCAASGSTFYLYAMGWSRPAPGKERELVATITNGGGTNYADSVKGRFTISRDNEKNTVYIQMNTLKPEDTAVYYCAATWYHRDGDYWGQGTQVTVSS
polyreactivity (PSR sort gate): low polyreactivity

QVQLVESGGGLVQAGGSLRLSCAASGRIFSRYAMGWYRQAPGKERELVAAITGRGGSTYYADSVKGRFTISRDNAKNTVYLQMNSLKPVDTAVYYCAVANRVTPLFLRYDYWGQGTQVTVSS
polyreactivity (PSR sort gate): high polyreactivity

LVQLVESGGGLVQAGGSLRLSCAASGSIFRYYVMGWYRQAPGKDRELVAAISTGDRTNYADSVKGRFTISRDNPKKTVYLQMNSQKPEDTAVYYCNADYVVGWARLEFNYWGQGTQVTVSS
polyreactivity (PSR sort gate): low polyreactivity

QVQLVESGGGLVQAGGSLRLSCAASGRTFWRYAMGWYIQAPGKERELVAAISSSGITYYADSVKGRFTISRDNAKNTVYLQMNSLKPEDTAVYYCAVRWGRGFWGQGTQVTVSS
polyreactivity (PSR sort gate): high polyreactivity
